Laboratory results reported in PMC4358367, “Structural basis of diverse membrane target recognitions by ankyrins” (eLife, 2014).
Where no end group is shown, it is not given here.

Assays:
Test in all cases: FP
[1] = target: T1, AnkB_repeats site 2 mutant 'IL' (Ile267 and Leu300 to Gln) (human, UniProt Q01484 28-873, Ile267 substituted with Gln | Leu300 substituted with Gln)
T1 sequence: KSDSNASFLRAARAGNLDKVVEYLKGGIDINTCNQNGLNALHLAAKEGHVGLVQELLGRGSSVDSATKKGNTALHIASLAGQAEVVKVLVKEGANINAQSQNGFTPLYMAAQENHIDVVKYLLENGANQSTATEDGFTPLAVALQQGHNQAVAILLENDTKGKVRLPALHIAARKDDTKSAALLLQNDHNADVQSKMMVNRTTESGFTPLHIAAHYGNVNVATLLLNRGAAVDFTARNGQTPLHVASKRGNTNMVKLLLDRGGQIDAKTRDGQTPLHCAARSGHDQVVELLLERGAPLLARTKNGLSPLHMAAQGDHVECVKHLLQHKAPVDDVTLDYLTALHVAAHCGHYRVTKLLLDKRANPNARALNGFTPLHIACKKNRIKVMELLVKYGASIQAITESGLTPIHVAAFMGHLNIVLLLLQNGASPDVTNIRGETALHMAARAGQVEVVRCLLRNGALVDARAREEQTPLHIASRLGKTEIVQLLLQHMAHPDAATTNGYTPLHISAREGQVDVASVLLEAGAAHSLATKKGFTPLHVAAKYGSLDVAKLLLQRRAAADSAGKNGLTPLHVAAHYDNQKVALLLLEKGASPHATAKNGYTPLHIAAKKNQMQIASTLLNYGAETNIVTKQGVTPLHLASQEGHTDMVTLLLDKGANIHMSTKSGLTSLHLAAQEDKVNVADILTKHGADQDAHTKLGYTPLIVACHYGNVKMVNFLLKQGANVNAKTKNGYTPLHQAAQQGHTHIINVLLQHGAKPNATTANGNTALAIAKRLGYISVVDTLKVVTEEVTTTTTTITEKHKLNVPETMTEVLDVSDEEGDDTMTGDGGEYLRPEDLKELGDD

[2] = target: T2, AnkB_repeats site 3 mutant 'LFL' (Leu366, Phe399 and Leu432 to Gln) (human, UniProt Q01484 28-873, Leu366 substituted with Gln | Phe399 substituted with Gln | Leu432 substituted …)
T2 sequence: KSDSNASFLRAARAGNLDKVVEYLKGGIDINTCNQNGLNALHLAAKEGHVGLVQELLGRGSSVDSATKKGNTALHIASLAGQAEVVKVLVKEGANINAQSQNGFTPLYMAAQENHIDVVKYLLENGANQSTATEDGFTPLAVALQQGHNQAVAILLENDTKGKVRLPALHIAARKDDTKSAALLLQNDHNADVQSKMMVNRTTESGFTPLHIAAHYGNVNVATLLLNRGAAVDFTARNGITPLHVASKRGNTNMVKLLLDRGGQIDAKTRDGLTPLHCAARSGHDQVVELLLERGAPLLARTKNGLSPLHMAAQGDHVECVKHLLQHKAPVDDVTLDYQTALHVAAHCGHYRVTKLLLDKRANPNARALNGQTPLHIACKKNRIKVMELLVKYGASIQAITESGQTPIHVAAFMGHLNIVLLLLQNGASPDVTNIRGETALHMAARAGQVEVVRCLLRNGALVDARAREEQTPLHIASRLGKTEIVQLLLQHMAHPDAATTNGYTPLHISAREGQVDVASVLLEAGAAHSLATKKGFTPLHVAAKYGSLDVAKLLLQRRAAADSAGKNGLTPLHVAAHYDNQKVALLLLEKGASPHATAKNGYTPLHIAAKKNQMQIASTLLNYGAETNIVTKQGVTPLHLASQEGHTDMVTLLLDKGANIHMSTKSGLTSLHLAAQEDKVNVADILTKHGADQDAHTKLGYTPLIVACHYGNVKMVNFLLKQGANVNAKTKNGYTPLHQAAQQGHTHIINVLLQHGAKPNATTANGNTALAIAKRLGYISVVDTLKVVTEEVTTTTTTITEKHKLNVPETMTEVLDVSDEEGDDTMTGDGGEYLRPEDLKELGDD

[3] = target: T3, AnkB_repeats (24 ANK repeats of human 220 kDa ankyrin-B, residues 28–873) (human, UniProt Q01484 28-873)
T3 chain: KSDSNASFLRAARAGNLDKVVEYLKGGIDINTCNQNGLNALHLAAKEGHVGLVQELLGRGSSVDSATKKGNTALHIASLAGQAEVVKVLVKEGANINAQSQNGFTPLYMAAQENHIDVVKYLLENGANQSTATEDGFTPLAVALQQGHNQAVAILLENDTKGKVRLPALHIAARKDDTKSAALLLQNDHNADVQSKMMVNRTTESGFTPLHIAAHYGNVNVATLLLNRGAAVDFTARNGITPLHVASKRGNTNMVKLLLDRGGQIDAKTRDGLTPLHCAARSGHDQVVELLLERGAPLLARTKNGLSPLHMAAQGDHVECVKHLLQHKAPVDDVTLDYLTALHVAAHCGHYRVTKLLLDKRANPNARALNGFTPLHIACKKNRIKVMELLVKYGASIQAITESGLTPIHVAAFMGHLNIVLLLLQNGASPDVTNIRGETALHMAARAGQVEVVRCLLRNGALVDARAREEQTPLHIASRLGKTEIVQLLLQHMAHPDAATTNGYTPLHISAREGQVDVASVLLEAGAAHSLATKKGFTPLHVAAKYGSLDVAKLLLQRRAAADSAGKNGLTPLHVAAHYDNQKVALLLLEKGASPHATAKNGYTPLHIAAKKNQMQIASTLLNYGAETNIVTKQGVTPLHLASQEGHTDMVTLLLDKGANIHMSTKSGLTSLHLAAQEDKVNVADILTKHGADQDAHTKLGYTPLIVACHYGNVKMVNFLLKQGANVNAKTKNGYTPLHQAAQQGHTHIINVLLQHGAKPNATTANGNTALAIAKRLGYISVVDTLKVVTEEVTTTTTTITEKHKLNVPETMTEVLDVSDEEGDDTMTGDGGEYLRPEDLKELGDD

B1: Cav1.3 peptide (mouse Cav1.3 residues 2134–2166), FITC-labeled (peptide, UniProt Q99246-4 2134-2166, looked up)
peptide: ELQDFGPGYSDEEPDPGREEEDLADEMICITTL
modifications: also: FITC label (position not given here)
notes: voltage-gated calcium channel Cav1.3, mouse, residues 2134-2166; also called voltage-gated calcium channel Cav1.3 peptide; source: synthetic peptide (commercially synthesized)
[1]
  Kd: 8.2 µM
[2]
  Kd: 4 µM
[3]
  Kd: 3.3 µM
